Experimental data taken from patent EP4717706A1.
Numbering of substitutions follows the chain as printed. In names and notes the source's numbering stands.

B1: AVR27b (AVR25c with I366F, T474R) (receptor)
chain: MGSAGESDQITLPKHEAQLKVYVLLVPPKGEASTYDWQLITHPRDYSGEMEGEHSQFLKLSNLTPGLYEYRAVVEGQNAHSEGYVNVTVEPGPRKNRPPIAIVSPQFQEISLPTTSAVIDGSQSTDDDKIVQYHWEELKGPLREEKISEDTPILKLSNLVPGNYRFRLTVVDTDGATDSTTADLTVNKAVDHHHHHH
B2: AVR27d (AVR25c with K455R, T474R) (receptor)
chain: B1 chain with F57I, K146R
B3: AVR29d (AVR25c with I366F, V394A, K455R, V499I) (receptor)
chain: B1 chain with V85A, K146R, R165T, V190I
B4: AVR29c (AVR25c with I366F, V394A, K455R, K497E) (receptor)
chain: B1 chain with V85A, K146R, R165T, K188E
B5: AVR27c (AVR25c with V394A, T474R) (receptor)
chain: B1 chain with F57I, V85A
B6: AVR29b (AVR25c with G314D, I366F, V394A, K455R) (receptor)
chain: B1 chain with G5D, V85A, K146R, R165T
B7: AAV-binding protein AVR21 (receptor)
chain: B1 chain with K20N, F57I, G92E, A117T, P152A, N158Q, R165T
B8: AVR28 (AVR25c with I366F, V394A, K455R) (receptor)
chain: B1 chain with V85A, K146R, R165T
B9: AVR26 (AVR21 with N329K, K338R, E401G, T426A, A461P) (receptor)
chain: B1 chain with K29R, F57I, N158Q, R165T
B10: AVR24a (AVR21 with N329K, E401G, T426A) (receptor)
chain: B1 chain with F57I, P152A, N158Q, R165T
B11: AVR25b (AVR21 with K338R, E401G, T426A, A461P) (receptor)
chain: B1 chain with K20N, K29R, F57I, N158Q, R165T
B12: AVR24b (AVR21 with K338R, T426A, A461P) (receptor)
chain: B1 chain with K20N, K29R, F57I, G92E, N158Q, R165T
B13: AVR25c with T434S (receptor)
chain: B1 chain with F57I, T125S, R165T
B14: AVR25c with Q347R, T486A, D500G (receptor)
chain: B1 chain with Q38R, F57I, R165T, T177A, D191G
B15: AVR25c with F(Y)379N (receptor)
chain: B1 chain with F57I, Y70N, R165T
B16: AVR25c with G392E, S433G, A485V, L493M, N496D (receptor)
chain: B1 chain with F57I, G83E, S124G, R165T, A176V, L184M, N187D
B17: AVR25c with E325V, D437V (receptor)
chain: B1 chain with E16V, F57I, D128V, R165T
B18: AVR25c with G314D, V499I (receptor)
chain: B1 chain with G5D, F57I, R165T, V190I
B19: AVR25c with Q318R, E362D, E378G (receptor)
chain: B1 chain with Q9R, E53D, F57I, E69G, R165T
B20: AVR25c with Q415R, S457R (receptor)
chain: B1 chain with F57I, Q106R, S148R, R165T
B21: AVR25c with P322A, T350A, L421P (receptor)
chain: B1 chain with P13A, T41A, F57I, L112P, R165T
B22: AVR25c_T474R (AVR25c with T474R) (receptor)
chain: B1 chain with F57I
B23: AVR25c with G314D, E399K, E445K (receptor)
chain: B1 chain with G5D, F57I, E90K, E136K, R165T
B24: AVR25c with V(D)317G, T478I (receptor)
chain: B1 chain with D8G, F57I, R165T, T169I
B25: AVR25c with H363P, K497E (receptor)
chain: B1 chain with H54P, F57I, R165T, K188E
B26: AVR25c with E378G, V398A (receptor)
chain: B1 chain with F57I, E69G, V89A, R165T
B27: AVR25c with R406H, F416L (receptor)
chain: B1 chain with F57I, R97H, F107L, R165T
B28: AVR29a (AVR25c with I366F, V394A, K455R, T474R) (receptor)
chain: B1 chain with V85A, K146R

target: VLP2 (virus-like particles, capsid protein particles of AAV serotype 2) (AAV serotype 2 (AAV2)) (UniProt P03135); assay: ELISA on immobilised VLP2 (purified protein, 5 µg/mL); A450 after 1:1 1 M NaOH with 1 mM CaCl2, 30°C, 45 min divided by A450 at 0 time
Chain of UniProt P03135 (P03135 whole entry): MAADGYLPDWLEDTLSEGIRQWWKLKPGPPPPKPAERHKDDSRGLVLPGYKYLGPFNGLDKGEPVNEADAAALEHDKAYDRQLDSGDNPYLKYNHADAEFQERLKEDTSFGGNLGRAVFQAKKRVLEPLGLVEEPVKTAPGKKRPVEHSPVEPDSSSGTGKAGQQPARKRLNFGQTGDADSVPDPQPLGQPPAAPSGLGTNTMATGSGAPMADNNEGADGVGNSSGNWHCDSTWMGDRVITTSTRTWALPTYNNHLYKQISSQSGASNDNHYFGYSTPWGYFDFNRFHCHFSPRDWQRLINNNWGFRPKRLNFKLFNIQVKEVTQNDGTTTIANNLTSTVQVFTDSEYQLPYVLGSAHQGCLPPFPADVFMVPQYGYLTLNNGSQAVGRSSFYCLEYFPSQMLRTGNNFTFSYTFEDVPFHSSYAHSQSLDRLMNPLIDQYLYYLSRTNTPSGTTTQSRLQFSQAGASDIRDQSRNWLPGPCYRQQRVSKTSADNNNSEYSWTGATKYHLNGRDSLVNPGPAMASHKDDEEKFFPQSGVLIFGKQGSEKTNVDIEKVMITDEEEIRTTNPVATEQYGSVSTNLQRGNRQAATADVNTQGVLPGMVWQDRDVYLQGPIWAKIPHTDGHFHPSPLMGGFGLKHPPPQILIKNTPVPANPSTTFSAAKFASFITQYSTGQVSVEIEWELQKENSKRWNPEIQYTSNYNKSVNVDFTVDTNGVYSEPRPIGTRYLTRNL

Row | Binder | Remaining activity [%]
1 | B1 | 4.54%
2 | B2 | 5.11%
3 | B3 | 4.47%
4 | B4 | 1.93%
5 | B5 | 1.73%
6 | B6 | 1.31%

target: VLP2 (virus-like particles, capsid protein particles of AAV serotype 2) (AAV serotype 2 (AAV2)) (UniProt P03135); assay: ELISA on immobilised VLP2 (culture supernatant, anti-His detection); A450 after 1:1 0.5 M NaOH, 30 min, 30°C divided by A450 untreated

Row | Binder | Remaining activity [%]
7 | B7 | 26.2%

target: VLP2 (virus-like particles, capsid protein particles of AAV serotype 2) (AAV serotype 2 (AAV2)) (UniProt P03135); assay: ELISA on immobilised VLP2 (purified protein, 5 µg/mL); A450 after 1:1 1 M NaOH with 1 mM CaCl2, 30°C, 20 min divided by A450 at 0 time

Row | Binder | Remaining activity [%]
8 | B3 | 63%
9 | B4 | 78.7%
10 | B6 | 58.7%

target: VLP2 (virus-like particles, capsid protein particles of AAV serotype 2) (AAV serotype 2 (AAV2)) (UniProt P03135); assay: as above; remark: another data set of the same source

Row | Binder | Remaining activity [%]
11 | B8 | 42.5%
12 | B3 | 68.6%
13 | B4 | 93.2%
14 | B6 | 63.7%

target: VLP2 (virus-like particles, capsid protein particles of AAV serotype 2) (AAV serotype 2 (AAV2)) (UniProt P03135); assay: ELISA on immobilised VLP2 (purified protein, 5 µg/mL); A450 after 1:1 1 M NaOH with 1 mM CaCl2, 30°C, 60 min divided by A450 at 0 time

Row | Binder | Remaining activity [%]
15 | B8 | 1.22%
16 | B3 | 1.06%
17 | B4 | 2.39%
18 | B6 | 1.08%

target: VLP2 (virus-like particles, capsid protein particles of AAV serotype 2) (AAV serotype 2 (AAV2)) (UniProt P03135); assay: ELISA on immobilised VLP2 (purified protein); A450 after 1:1 0.5 M NaOH, 30°C, 60 min divided by A450 at 0 time

Row | Binder | Remaining activity [%]
19 | B7 | 0%
20 | B9 | 23.9%
21 | B10 | 0.3%
22 | B11 | 1.5%
23 | B12 | 17.6%

target: VLP2 (virus-like particles, capsid protein particles of AAV serotype 2) (AAV serotype 2 (AAV2)) (UniProt P03135); assay: ELISA on immobilised VLP2 (purified protein); A450 after 1:1 0.5 M NaOH, 30°C, 30 min divided by A450 at 0 time

Row | Binder | Remaining activity [%]
24 | B7 | 16.9%
25 | B9 | 100%
26 | B10 | 37.6%
27 | B11 | 100%
28 | B12 | 89.1%

target: VLP2 (virus-like particles, capsid protein particles of AAV serotype 2) (AAV serotype 2 (AAV2)) (UniProt P03135); assay: ELISA on immobilised VLP2 (purified protein, 5 µg/mL); A450 after 1:1 1 M NaOH with 1 mM CaCl2, 30°C, 60 min divided by A450 at 0 time; remark: another data set of the same source

Row | Binder | Remaining activity [%]
29 | B7 | 0.694%

target: VLP2 (virus-like particles, capsid protein particles of AAV serotype 2) (AAV serotype 2 (AAV2)) (UniProt P03135); assay: ELISA on immobilised VLP2 (culture supernatant); A450 after 1:1 1 M NaOH, 15 min, 30°C divided by A450 untreated

Row | Binder | Remaining activity [%]
30 | B8 | 71.9%
31 | B13 | 77.3%
32 | B14 | 72.8%
33 | B15 | 55.1%
34 | B16 | 61%
35 | B17 | 76.7%
36 | B18 | 79.1%
37 | B19 | 66.1%
38 | B20 | 55.1%
39 | B21 | 49.6%
40 | B22 | 100%
41 | B23 | 62.5%
42 | B24 | 82%
43 | B25 | 69.6%
44 | B26 | 67.5%
45 | B27 | 41.9%

target: VLP2 (virus-like particles, capsid protein particles of AAV serotype 2) (AAV serotype 2 (AAV2)) (UniProt P03135); assay: ELISA on immobilised VLP2 (purified protein, 5 µg/mL); A450 after 1:1 1 M NaOH with 1 mM CaCl2, 30°C, 30 min divided by A450 at 0 time

Row | Binder | Remaining activity [%]
46 | B7 | 1.53%

target: VLP2 (virus-like particles, capsid protein particles of AAV serotype 2) (AAV serotype 2 (AAV2)) (UniProt P03135); assay: ELISA on immobilised VLP2 (purified protein); start of alkali treatment, the reference of the ratio

Row | Binder | Remaining activity [%]
47 | B7 | 100%
48 | B9 | 100%
49 | B10 | 100%
50 | B11 | 100%
51 | B12 | 100%

target: VLP2 (virus-like particles, capsid protein particles of AAV serotype 2) (AAV serotype 2 (AAV2)) (UniProt P03135); assay: ELISA on immobilised VLP2 (purified protein, 5 µg/mL); A450 after 1:1 1 M NaOH with 1 mM CaCl2, 30°C, 30 min divided by A450 at 0 time; remark: another data set of the same source

Row | Binder | Remaining activity [%]
52 | B8 | 22.5%
53 | B28 | 24.2%

target: VLP2 (virus-like particles, capsid protein particles of AAV serotype 2) (AAV serotype 2 (AAV2)) (UniProt P03135); assay: as above; remark: another data set of the same source

Row | Binder | Remaining activity [%]
54 | B8 | 42%
55 | B4 | 57.7%

target: VLP2 (virus-like particles, capsid protein particles of AAV serotype 2) (AAV serotype 2 (AAV2)) (UniProt P03135); assay: as above; remark: another data set of the same source

Row | Binder | Remaining activity [%]
56 | B1 | 17.1%
57 | B2 | 15.8%
58 | B5 | 13.6%

target: VLP2 (virus-like particles, capsid protein particles of AAV serotype 2) (AAV serotype 2 (AAV2)) (UniProt P03135); assay: ELISA on immobilised VLP2 (purified protein, 5 µg/mL); A450 after 1:1 1 M NaOH with 1 mM CaCl2, 30°C, 60 min divided by A450 at 0 time; remark: another data set of the same source

Row | Binder | Remaining activity [%]
59 | B8 | 3%
60 | B28 | 5.07%

target: VLP2 (virus-like particles, capsid protein particles of AAV serotype 2) (AAV serotype 2 (AAV2)) (UniProt P03135); assay: as above; remark: another data set of the same source

Row | Binder | Remaining activity [%]
61 | B8 | 6.29%
62 | B4 | 15.7%

target: VLP2 (virus-like particles, capsid protein particles of AAV serotype 2) (AAV serotype 2 (AAV2)) (UniProt P03135); assay: ELISA on immobilised VLP2 (purified protein, 5 µg/mL); start of alkali treatment, the reference of the ratio

Row | Binder | Remaining activity [%]
63 | B8 | 100%
64 | B7 | 100%
65 | B1 | 100%
66 | B2 | 100%
67 | B3 | 100%
68 | B4 | 100%
69 | B5 | 100%
70 | B28 | 100%
71 | B6 | 100%
